Experimental findings from the nanobody polyreactivity screen of Harvey et al. (2022) are described below.

The nature of this data set: yeast display, Sf9 membrane polyspecificity reagent, FACS + sequencing; frameworks hold sequencing errors. Summed up:
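A nanobody's polyreactivity label depends on the gate it was sorted from. Yeast display cells were stained with 10% biotinylated, detergent-solubilized Sf9 membrane reagent for 1 hour at 4 °C, enriched on streptavidin microbeads and sorted by FACS. The low and high (top ~1%) gates were set on anti-HA fluorescence for expression and streptavidin fluorescence for reagent binding.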
Take “QDQHVESGGCLVQAGGSLRLSCAASGFTFYANAMGWYRQAPGKERELVAAISRGVSTTYADSVKGRFTISRDNSKNTVYLQMNSLTPEDTAVYYCAADGKVIAQGYDYWGQGTQVTVST”: the “polyreactivity (PSR sort gate)” value is recorded as “low polyreactivity”.
In the case of “QDQHVESGGGFVQAGGSLRLICAASGYTFYGNPMGWYRQAPGKEREFVASINYNDDSTYYADSVKGRFTISLDNAKNTDYLQMNSLKPEDTAVYYCAAEYRTRGYHWIYYWGQGTQVTVSS”, the “polyreactivity (PSR sort gate)” value is “low polyreactivity”.
For “QDQHVESGGGLVQAGCSLRLSCAASGFIFTYYAMGWYRQAPGKERELVAAISRSGGNTYYADSVKGRFTISRDNAKNTVYFQMYSLKREDTAVYFCAAETRRGGYWGYEYYYWGQGTQVTVSS”, the “polyreactivity (PSR sort gate)” value is “high polyreactivity”.
Consider “QDQHVESGGGLVQAGCSLRLSCAASGSIFKDNAMGWYRPAPCKEWELVADITIGDSTTYEDSVKGRFTISRDNAKNTVYLHMNSLKPEDTAVYYCAADNYIIKYDYWDYDYCGQGTQVTVSS”, for which the “polyreactivity (PSR sort gate)” value is “low polyreactivity”.
In the case of “QDQHVESGGGLVQAGGILRLICAASGPIFGYNAMGWYRQEPGQERELVAAINSDGSKNYADSVKGRFTISRDNAKITVYLQMISLKPEDTAVYYCNQLLYPVGDYEFWGQGTQVTVSS”, the “polyreactivity (PSR sort gate)” value was “low polyreactivity”.
Regarding “QDQHVESGGGLVQAGGRLRLSCAASGRIFSFYVMGWYIQAPGKERELVASISLSGGSTYYADSVKGRFTFSRDNAKNTVYLQMNSLKPEDTEVYYCNAVLYARQRERWARYDYWGQGTQVTVSS”, the “polyreactivity (PSR sort gate)” value is “high polyreactivity”.
In the case of “QDQHVESGGGLVQAGGSLRLICAASGFIFVTNTMGWYRQAPGTEWELVAAIRWSGGTTYYADSVKGRFTISRDNAMQTVYLQMNSLKPEDTAFYYCAARYGSRSSYLAYYYWGQGTQVTVSS”, the “polyreactivity (PSR sort gate)” value is recorded as “high polyreactivity”.
Consider “QDQHVESGGGLVQAGGSLRLSCAASGIILSAYAMGWYRQAPGTERELVARISRSGGRTYYADSVKGRFTISRDNAKNTVYLQMNSLKPEDTAVYYCAADYSYGFGLYFGYGYWGQGTQVTVSS”, for which the “polyreactivity (PSR sort gate)” value is given as “high polyreactivity”.
Consider “QDQHVESGGGLVQAGGSLRLSCAASGLTFTLYAMGWYRKAPGKERELVAAITRSGGSTSYADSVKGRFTISRDYAKNTVYLQMNSLKPEDTAVYYCNADSPGYTAVRLVEFDYWGQGTQVTVSS”, for which the “polyreactivity (PSR sort gate)” value is recorded as “low polyreactivity”.
On to “QDQHVESGGGLVQAGGSLRLSCAASGLTSLGNAMGWYRQAPGKERELVAAITRTGTSTYYADSVKGRFTISRDNAKNTVYLQMNSLKPEDTAVYYCAADWWYGYSNYDYWGQGTQVTVSS”, for which the “polyreactivity (PSR sort gate)” value is “low polyreactivity”.
Consider “QDQHVESGGGLVQAGGSLRLSCAASGRTIGYNAMGLYRQAPGKERELVAAITSSSGSTYYADSVKGRFTISRDNAKNTVYLQMNSLKPEDRAVYYCAAYFRRLLYDYWGQGTHVTVSS”, for which the “polyreactivity (PSR sort gate)” value is listed as “high polyreactivity”.
With “QDQHVESGGGLVQAGGSLRLSCAASGSTFDAYAMGWYRQAPGKERELVAAISWSDTTTYYADSVKGRFTISRDNAKNTVYLQMNSLKPEDTAVYYCADEYYFTEGSYTSDYWGQGTQVTVSS”, the “polyreactivity (PSR sort gate)” value is “high polyreactivity”.
As for “QDQHVESGGGLVQAGGSLRLSCAASGSTFDWNAMGWSRQAPGKERELVAGISWNGGSTYYADSVKGRFTISRDNAKNTVYLQMNSLKPEDTAVYYCNVVYGTTEYDYWGQGTQVTVSS”, the “polyreactivity (PSR sort gate)” value is “low polyreactivity”.
“QDQHVESGGGLVQAGGSLRLSCDASGITFWYYAMGWYRQAPGKERELVAAISRRGGATYYADSVKGRFTISRDNAKNTVYLQLNSLKPEDTAVYYCNALLAGRRVARGYDSWGQGTQVTVSS”: the “polyreactivity (PSR sort gate)” value is given as “high polyreactivity”.
Regarding “QDQHVESGGGLVQAGGTLRISCAASGFTFYVYAMGWYRQAPGKEMELVASISKSGGSTYYADSVKGRFTITRDNAKNTVFLQMNSLKTVDTAVYYCAVYDKRSCYRGGHRYNSCGQGTQVTVSS”, the “polyreactivity (PSR sort gate)” value is recorded as “high polyreactivity”.
For the sequence “QDQHVESVGGLVQAGGSLRLSCAASGSIIPLYAMGWYRQAPGKERELVAAISSRGGSTYYADSVKGRFSISRDNAKNTVYLQMKSLKPEDTAVYYCAVDTPSPSRGPRFNYWGQGTQVTVSS”, the “polyreactivity (PSR sort gate)” value is reported as “high polyreactivity”.
For “QDQIVESGGGLVQAGGSLRLSCAASGSIFVIKAMGWYRQAPGKERELVASIRGRTGSTNYADSVKGRFTISRDNAKNTVYLQMNSLKPVDTAVYYGAADRKGPFDYWGLGTQVTVSS” the value was “high polyreactivity”; for “QDQIVESGGGLVQAGGSLRLSCAASGSIIWGNALGWYSQAPGKERELVAAISWGGGRTYYADSVKGRFTLSRDNAKNTVYLQMNSLKPEDTAVYYCNTRYPYVVSTGYDYWGQGTQVTVSS”, “high polyreactivity”; for “QDQLEESGGGLDQAGCSLRLSCAASGFTFNYYTMGWYRQAPVKERELVAVITGGGGSTYYADSVKGRFTISRDNAKNTVYLQMNSLKPEDTAVYYCAAYWGGWSFRYLYDYWGQGTQVTGSS”, “high polyreactivity”.
Consider “QDQLEESGGGLVQAGGSLRLSCAASGFTFHINSMGWDREAPGKEREMVAAITYSGGSTYYADSVKGRFTISRDPAKNTVYLQMNCLKPEHTAVDYCATTWYFVASWFVAIYVYWGQGTQVTVSS”, for which the “polyreactivity (PSR sort gate)” value was “low polyreactivity”.
As for “QDQLEESGGGLVQAGGSLRLSCAASGLTFIQYALGWYRQAPGKERELVAAINSGASTRYADSEKGRFTISRDNAMNTVYLQMNSLKPEDTAVYYCNARLRRYTNRYYKYYYWGQGTLVTVSS”, the “polyreactivity (PSR sort gate)” value is recorded as “high polyreactivity”.
As to “QDQLEESGGGLVQAGGSLRLSCAASGSTFSYYTMGWYRQGPGKETELVAAISSGGSTYADSVKGRFTISRDNAKYTVYLQKNSLKPEDTAVYYCAVVGFDYGPSQALDDWGQGTQVTVSS”, the “polyreactivity (PSR sort gate)” value is recorded as “low polyreactivity”.
As for “QDQLEESGGGLVQAGGSLRLSSADSGRIFYSYAMGWYRQAPGKERELVAAINSGDRTNYADSVKGRFTISRDNAKNTVYLQMNSLKPEDTAVYYCATRWFAFPWDEYNYWGQGTQGTVSS”, the “polyreactivity (PSR sort gate)” value is “low polyreactivity”.
Regarding “QDQLEESVGGLVQAGGSLRLSCAASGRIFVYNAMGWYRQAPGKERELVAAISKGGGSTYYADSVKGRFTISRDNAKNTVYLQMNSLKPEDTAVYYCAAVVSGRYWGYYSWGQGTQVTVSS”, the “polyreactivity (PSR sort gate)” value is recorded as “high polyreactivity”.
As to “QDQLGESGGGLVQAGGSLRLSCAASGSTFYAYAMGWYRQAPGKERELVATISWSGGSTYADCVKGRFTISRDNAKNTVYLQMNSLKPEDTPVYYCNAAGAFYPTQVHPGYTLWSYDYWGQGTQVTVSS”, the “polyreactivity (PSR sort gate)” value is “low polyreactivity”.
In the case of “QDQLLESVGGLVQAGGSLRLSCAATGSTFHRSVMGSYRQAPGKEREMVAVINSTGGSTYYADSVKGRFTISLDNAKNTVYLQMNSVKPEDSAVYYFAADLYSIEYETAYRGYEYWGQGTQVTVSS” it was “low polyreactivity”; in that of “QDQLVDSGGGLVQAGGSLRLLCAPSGRTFGVYAMGRYIQAPGKERELVAAISRDGGSTYYADSVKGRFTISRDNAKNTVYLQMNSLIPEDTAVYYCNTDWRYRYGYWGQGTQVTVSS”, “high polyreactivity”; in that of “QDQLVDSGGGLVQAGGSLRLSCAASGFTFSLNTMGWYRQAPGKERELVAAINSGDSTYADSVKGRFTISRDNAKNTVYLQMNSLKPEETAVYYCNADPDWWYPYNYWGQGTQVTVSS”, “low polyreactivity”.
In the case of “QDQLVDSGGGLVQAGGSLRLSCAASGRIFGYNSMGWYRQAPGKERELVASISSDGRTYYADSVKGRFTISRDNAKNTVYLQMNSLKPEDTAVYYCAAKEWYFTTWYTYYERDYWGQGTQVTLSS” it was “high polyreactivity”.
In the case of “QDQLVDSGGGLVQAGGSLRLSCAASGRIFSGNGMGWYSPAPGKERELVASISSGGRTYYADSVKGRFTISRDNAKITVYLQMNSLKPEDTAVYYCNRVASVRARDYDYWGQGTQVTVSS” it was “high polyreactivity”; in that of “QDQLVDSGGGLVQAGGSLRLSCAASGRIIGYNAMVWYRQGPGKERELVAAITTSGGSTYYADSVKGRFTISSDNAKNTVYLQMNSLKPVDTAVYYCARDSLQVFYPYASDDYWGQGTQVTVSS”, “low polyreactivity”; in that of “QDQLVDSGGGLVQAGGSLRLSCAASGRTFGYYAMGWYRQAPGKERELVAAISISTGRTYYADSVKGRFTISRDNAKNTVYLQMNSLKPEDTAVYYCAAYYYGGRYHSEYDYWGQGTQVTVSS”, “high polyreactivity”.
Regarding “QDQLVDSGGGLVQAGGSLRLSCAASGRTIISYAMGRYRPAPGKERELVATITRDGRTNYADSVKGRFTISRDNAKNTVYLQMNSLNPEDTAVYYCNADSRYRYDYWGQGSQVTVSS”, the “polyreactivity (PSR sort gate)” value is “low polyreactivity”.
On to “QDQLVDSGGGLVQAGGSLRLSCAASGSNFCGKAMGWYRQAPGKEREFVAAITRSGGSTYYADSVKGRFTISRDNAKNTVYLQMNSLKPEDTAVYYCNRDYAFKHHRAGYGYWGQGTLVTVSS”, for which the “polyreactivity (PSR sort gate)” value is “low polyreactivity”.
On to “QDQLVDSGGGLVQAGGSLRLSCAASGSTFGPYPMGWYRQAPGKERELVATISSGGSTYYADSVKGRFTISRDNAKNTVYLQMNSLKPEDTSVYDCAARYWSIYDYWGQGTQVTVSS”, for which the “polyreactivity (PSR sort gate)” value is “low polyreactivity”.
As for “QDQLVDSGGGLVQAGGSLRLSCAASGYIFDRYAMGWYRQEPGKERELVAAISGRGGSTYYADSVKGRFTISRDNAKNTVYLQMYSLKREDTAVYYCARDVYVRNGQRARFDSWGQGTQVTVSS”, the “polyreactivity (PSR sort gate)” value was “high polyreactivity”.
Consider “QDQLVDSGGGLVQAGGSLSLSCAASGISFYGNAMAWYRPAPGKERELVAAITSGGSTNYADSVKGRFTISRDNAKNTVYLQLYSLKPEDTAVYYCAVSYVSTLRRSRYDYWGQGTQVTVSS”, for which the “polyreactivity (PSR sort gate)” value is reported as “low polyreactivity”.
For “QDQLVDSGGVLVQAGGSLRLTCAASGSTFARNAMGWYRQAPGKERELVAAISSGGTTNYADSVKARFTISRDNAKNTVYLQMNSLKPEDTAVYYCNAGFRNVLTSGYLYDYWGQGTQVTVSS” the value was “low polyreactivity”; for “QDQLVEERGGLVQAGGSLRLSCAASGITFSTNAMGWYRQAPGKERELVAAITSVTSTYYADSVKGRFTISRDYAKNSVYLQMNSLKTEDTAVLYCAASLSRWPYFYEYNYWGQGTQVTVSS”, “low polyreactivity”.
In the case of “QDQLVESAGGLVQAGGSLRLSCAASARIFRYNAIGCYRQGPGKERVLVASITSAGSTNYADSVKGRFTISRDNAKNTVYLQMNSLKPEDTAVYYCNKRRAYGYYLFDYWGLGTQVTVSS” it was “high polyreactivity”.
